Results: PMC4966879
Read-outs that look alike come from different tables or passages of the source.

Legend:
Test in all cases: SAXS
[1] = biological target: T1, HUαβ (Escherichia coli, UniProt P0ACF0;P0ACF4 1-90;1-90)
[2] = biological target: HUαα G82E (Escherichia coli, UniProt P0ACF0 1-90, G82E)
[3] = biological target: HUαα V45E (Escherichia coli, UniProt P0ACF0 1-90, V45E)
[4] = biological target: T2, HUαα (Escherichia coli, UniProt P0ACF0 1-90)
[5] = biological target: HUα38α38 (Escherichia coli, UniProt P0ACF0 1-90, E38K;V42L)
[6] = biological target: HUαα P63E (Escherichia coli, UniProt P0ACF0 1-90, P63E)
[7] = biological target: T2, HUαα; remark: listed apart in the source
[8] = biological target: T1, HUαβ; remark: listed apart in the source

Measured: binding result

B1: 80-bp DNA (dsDNA)
DNA 1: AATGAGGTAACAACGAAAGCAGATGATAGCTGCTTATCAATTTGTTGCAAACAAGTAGCCGCGCCCAATGAGGTAACAAT
DNA 2: ATTGTTACCTCATTGGGCGCGGCTACTTGTTTGCAACAAATTGATAAGCAGCTATCATCTGCTTTCGTTGTTACCTCATT
not listed: [7] | [8]
binds: all other assays above

B2: 20-bp DNA (dsDNA)
DNA 1: GTTCAATTGTTGTTAACTTG
DNA 2: CAAGTTAACAACAATTGAAC
binds: [7] | [8]
